Measurements taken from PMC12560246, “Calorimetric characterization of the stability and activity of trimethylamine‐N‐oxide (TMAO) demethylase from Methylocella silvestris BL2” (Protein Science : A Publication of the Protein Society, 2025).
Values joined by “and” are separate entries in the source; they are usually repeats but may differ in a detail not shown here. Identical values can stand only once.

Experiments:
[1] = target: trimethylamine-N-oxide demethylase (Tdm) from Methylocella silvestris BL2 (Methylocella silvestris BL2); experiment: SEC; analytical SEC, HiLoad 16/600 Superdex 200 pg, 50 mM TRIS pH 7.9, 150 mM NaCl, 0.5 mL/min; column calibrated with globular proteins; 0.5 mL of concentrated IMAC fractions injected
[2] = substrate: C[N+](C)(C)[O-]; experiment: isothermal titration calorimetry, multiple injection, Michaelis-Menten fit; type: biochemical, Methylocella silvestris; conditions: 50 mM KPi pH 7.0, 25 °C, 100 nM Tdm, multiple injections of 600 μM TMAO
Source text: isothermal titration calorimetry, multiple injection, Michaelis-Menten fit on Tdm (trimethylamine-N-oxide demethylase)

| stoichiometry N [1] | Molecule | Km [2] [µM] | Vmax [2] [µmol/min] | kcat [2] [s⁻¹] |
| --- | --- | --- | --- | --- |
| 8 and 5 | trimethylamine-N-oxide demethylase (Tdm) from Methylocella silvestris BL2 (enzyme) | – | – | – |
| – | Tdm (trimethylamine-N-oxide demethylase) (Methylocella silvestris BL2) (protein, GenBank version '.14' [sic]) MNVNAAAPKGSFDLDAPRRVQTLSAAGGGGVQFDLSAGDEAIITNLEGGQAGELLTASGEPLRLTPGSAPTDEAGVRAVAGDLAAAFLAARQGTERFLATPLFHAAAEPGETFRFKAEADMRCLLLAPGEPMAPDAQNPPTELRLDIFSSRPTGGAAPPSLAPVKLDLRVDAATARAYRVSAGDYIQIIDVDGRQCSDLVAFDARALAEGRELGVDPTVTRTLMGSATPGPGLHAKYFDQDMNPLFEIVRDTVGRHDTFMLACNAKYYDDMGYPGHANCTDNFNAALAPFGVAPRRGWPAINFFYNTFVAEDNTIGLDEPWSRPGDYVLLRALTDLVCASSSCADDIDPANGWMPTDIHVRVYDAAASFSKGIAHRMTADAAPRLTRESGFHSRTSALTRSFADYRGFWTPQCYASEGPIAEYWACRERAVLIDLSALRKFEITGPDAEILLQSAVTRNIRKLAVGQIVYTAICHEHGGMLDDGTVFRLGDNNFRLVCGEDYCGVFLRELAARQGLRAFVRSSTDQLHNVALQGPKSRDILREILVTPPHRASADELKWFRFTVGKIAGLPVLVSRTGYTGELGYEIWLHPGSAVAVWDALMAAGKPYGIAPFGFAALDMVRIEAGLIFAHHEFCDETDPFEAGIGFAVPAEKADPYVGSEALARRRASPIRRLAGLDVAGNEAVAHGDPVFAGRAQVGVVTSAMRSPVLGRTIALARLDAACASIGTDLEIGKLDGRQKRIAATVARFPHYDPEKARVRA | 866 ± 72 | 18.5 | 15.48 ± 0.04 |
